Measurements published in publication PMC6872814, “Functional interactions between nitrite reductase and nitric oxide reductase from Paracoccus denitrificans” (Scientific Reports, 2019).

Experiments:
[1] = molecular target: cytochrome c-dependent nitric oxide reductase (cNOR) from Paracoccus denitrificans, NorB and NorC, unlabelled (Paracoccus denitrificans) (UniProt Q51662)
[2] = molecular target: cytochrome c-dependent nitric oxide reductase (cNOR) from Paracoccus denitrificans, NorB and NorC, unlabelled (Paracoccus denitrificans) (UniProt Q51662); remark: listed apart in the source
[3] = molecular target: cytochrome c-dependent nitric oxide reductase (cNOR) from Paracoccus denitrificans, NorB and NorC, unlabelled (Paracoccus denitrificans) (UniProt Q51662); remark: listed apart in the source
[4] = molecular target: cytochrome c-dependent nitric oxide reductase (cNOR) from Paracoccus denitrificans, NorB and NorC, unlabelled (Paracoccus denitrificans) (UniProt Q51662); remark: listed apart in the source

Sequence of horse heart cytochrome c (P00004 whole entry): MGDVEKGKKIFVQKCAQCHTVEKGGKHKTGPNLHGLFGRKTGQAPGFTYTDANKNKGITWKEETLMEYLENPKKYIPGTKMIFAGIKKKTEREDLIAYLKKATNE
Sequence of cytochrome c-dependent nitric oxide reductase (cNOR) from Paracoccus denitrificans, NorB and NorC, unlabelled (Paracoccus denitrificans) (Q51662 whole entry, looked up): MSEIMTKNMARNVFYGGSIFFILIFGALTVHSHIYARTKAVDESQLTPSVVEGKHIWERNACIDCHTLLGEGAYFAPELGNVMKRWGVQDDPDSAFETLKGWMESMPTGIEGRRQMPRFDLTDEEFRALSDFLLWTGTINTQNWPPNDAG
Sequence of cytochrome cd1 nitrite reductase (cd1NiR) from Paracoccus pantotrophus, labelled with Abberior STAR 635 (P72181 30-596): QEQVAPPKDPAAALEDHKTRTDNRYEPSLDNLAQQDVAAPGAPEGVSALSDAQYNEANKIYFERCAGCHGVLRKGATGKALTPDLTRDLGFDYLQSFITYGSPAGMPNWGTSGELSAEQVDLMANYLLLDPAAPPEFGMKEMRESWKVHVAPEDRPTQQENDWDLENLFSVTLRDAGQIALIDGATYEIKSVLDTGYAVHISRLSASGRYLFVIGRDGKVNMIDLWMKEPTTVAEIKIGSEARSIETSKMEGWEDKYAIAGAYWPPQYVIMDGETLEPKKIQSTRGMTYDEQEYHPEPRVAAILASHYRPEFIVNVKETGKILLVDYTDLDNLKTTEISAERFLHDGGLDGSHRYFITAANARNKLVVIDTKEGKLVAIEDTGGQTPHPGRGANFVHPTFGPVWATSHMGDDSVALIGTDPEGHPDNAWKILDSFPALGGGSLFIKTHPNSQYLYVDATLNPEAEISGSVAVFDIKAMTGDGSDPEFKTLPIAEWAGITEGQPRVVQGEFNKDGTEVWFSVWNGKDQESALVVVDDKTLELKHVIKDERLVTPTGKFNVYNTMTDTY

Substance | Km for cyt. c of NO reduction by cNOR in detergent (0.05% DDM) [1] [µM] | Km for cyt. c of NO reduction by liposome-reconstituted cNOR [1] [µM] | Km for cyt. c of NO reduction by liposome-reconstituted cNOR in the presence of ~30 nM cd1NiR (unchanged against the control) [2] [µM] | Km for cyt. c of NO reduction by liposome-reconstituted cNOR, side-by-side control without cd1NiR [2] [µM] | inhibition of the maximum NO-reduction activity (kmax at ~5 µM NO) of 40 nM detergent-solubilized cNOR, cd1NiR 0-200 nM; the inhibition is released at higher cd1NiR [3] [%] | relative kmax (kcat of the fit) of NO reduction by liposome-reconstituted cNOR in the presence of ~30 nM cd1NiR, cyt. c titration; control without cd1NiR = 100% [4] [%]
horse heart cytochrome c (from UniProt P00004 1-105) (natural protein) | 0.8 | 0.8 | 0.15 | 0.2 |  | 
cytochrome cd1 nitrite reductase (cd1NiR) from Paracoccus pantotrophus, labelled with Abberior STAR 635 (from UniProt P72181 30-596) (enzyme) |  |  |  |  | 50 | 46
